Measurements from paper PMC3134789.

Key:
[1] = target: Nova-1 KH2 domain (individual domain); experiment: AUC
[2] = target: Nova-1 KH2 domain (individual domain); experiment: SEC
Nova-1 KH2 = target: T1, Nova-1 KH2 (UniProt Q9JKN6 171-237); experiment: NMR
T1 sequence: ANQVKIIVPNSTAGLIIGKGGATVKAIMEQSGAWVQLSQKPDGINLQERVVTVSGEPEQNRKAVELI

Nova-1 KH2 domain (individual domain) (domain or fragment), sequence (P51513 44-493): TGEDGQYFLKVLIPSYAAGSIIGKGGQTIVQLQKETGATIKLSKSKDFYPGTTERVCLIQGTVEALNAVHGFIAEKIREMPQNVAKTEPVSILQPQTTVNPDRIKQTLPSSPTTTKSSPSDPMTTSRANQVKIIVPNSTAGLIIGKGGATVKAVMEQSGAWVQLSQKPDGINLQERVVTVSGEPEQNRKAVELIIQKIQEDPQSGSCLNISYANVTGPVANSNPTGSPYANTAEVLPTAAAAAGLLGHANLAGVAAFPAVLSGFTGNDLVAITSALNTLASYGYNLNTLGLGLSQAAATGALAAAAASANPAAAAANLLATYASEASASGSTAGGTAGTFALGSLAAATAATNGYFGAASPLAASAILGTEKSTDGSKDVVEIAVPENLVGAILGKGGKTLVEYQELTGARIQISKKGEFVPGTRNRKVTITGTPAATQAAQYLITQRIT

Row | Molecule | stoichiometry N [1] | stoichiometry N [2] | binding result (Nova-1 KH2)
1 | Nova-1 KH2 domain (individual domain) (domain or fragment) | 2 | 2 | –
2 | UCAC (ssRNA) [UCAC tetranucleotide] | – | – | binds
